These results are taken from patent US20220211817A1, “CONTROLLED-RELEASE CNP AGONISTS WITH LOW NPR-C BINDING” (ASCENDIS PHARMA GROWTH DISORDERS A/S, priority 2016, published 2022).

The test system of series [1] is Male Crl:CD1(ICR) mice. Briefly: Evaluation of cardiovascular effects in the conscious telemetered mouse (subcutaneous administration). In kind it is in vivo. The following applies: 800 μg CNP-38 (eq)/kg subcutaneous; for change in MAP at the 5, 15, and 30 min post dose sampling time points (in words): compared to predose. Here is the method:
Male Crl:CD1(ICR) mice (age range 8-13 weeks and body weight range 27.3-35.6 g at start of dosing) were surgically implanted with a TA11PA-C10 telemetry transmitter (Data Sciences International (DSI)) in the carotid artery. The body of the transmitter was placed subcutaneously in the lateral flank of the mouse. The mice were dosed subcutaneously in a latin square crossover design with at least 72 hours between dosing occasions. […] At least four mice were included at each dose level. […] Each time point was presented as the average value of five minute's recording prior to the time point. The monitoring period was selected to cover exposure to the test items both prior to and after Tmax.

A short description of series [2]: Pharmacokinetic profile of conjugate 11i after subcutaneous single-dose administration to cynomolgus monkeys. The conditions noted are these: single s.c. 40 μg CNP-38 eq/kg. Here is the method: As internal standard deuterated CNP-38 conjugate was used.
200 μL of the supernatant were transferred into a new well-plate and evaporated to dryness (under a gentle nitrogen stream at 35° C.). […] After 3 hours incubation at 37° C. […] 10 μL were injected into the UHPLC-MS system.

For series [3] the following is noted: cynomolgus monkey, in vivo, sc.
Series [4] can be described thus: Pharmacokinetic study of transient conjugates 10f and 11i in cynomolgus monkeys. The conditions noted are these: single subcutaneous, 0.146 mg CNP-38 eq/kg.
The target of series [5] is T1, recombinant human NEP (Homo sapiens, UniProt P08473).
T1 construct: purchased Enzo Life Sciences GmbH, Lörrach, Germany
As to the kind of experiment: Digest of CNP variants by Neutral Endopeptidase in vitro. In kind it is in vitro ADME. The conditions noted are these: 100 μg CNP equivalents/mL, pH 7.4, 37° C., up to 4 days, normalized to mean CNP-34 or CNP-38 half life. The source says: Samples were taken at different time intervals. […] The resulting reaction products were assigned using HPLC-MS.

Series [6] in a line: Pharmacokinetic profile of CNP-38 after subcutaneous single-dose administration to cynomolgus monkeys. The conditions noted are these: single s.c. 40 μg/kg.
Method: This study was performed in order to test the pharmacokinetics of CNP-38 after subcutaneous (s.c.) administration in cynomolgus monkeys. Three male monkeys (2-4 years old, 3-5 kg) received a single s.c. injection at a dose of 40 μg/kg of CNP-38.
Method: Plasma levels of CNP were analysed using a commercially available competitive radioimmuno-assay (RK-012-03, Phoenix Pharmaceuticals, CA). The assay was applied essentially as described by the manufacturer.
A few changes to the supplied assay protocol were made. These changes included using in-house CNP calibrant and QC samples to secure consistency between assay runs.
A short description of series [7]: Pharmacokinetic study of permanent conjugate 12 g in cynomolgus monkeys. In kind it is in vivo. On the procedure:
As internal standard deuterated CNP-38 peptide was used.
After 4 hours incubation at 37° C. […] The eluates were transferred into vials. 10 μL were injected into the UPLC-MS system.

The conditions of series [8]: after iv administration; cited from earlier work.
The subject of series [9] is healthy volunteers. The conditions noted are these: CNP injection; cited from earlier work.
Series [10] has as its system healthy volunteers. The following applies: Phase 1 study; cited from earlier work.

Like-named read-outs stand apart in the source and are kept apart here. Bridge positions count the residues as written; N and C are the ends. Side chains are listed from the residue outwards. Ends that are not written are not given here. reversible linker = not defined here

T1 sequence (P08473 whole entry): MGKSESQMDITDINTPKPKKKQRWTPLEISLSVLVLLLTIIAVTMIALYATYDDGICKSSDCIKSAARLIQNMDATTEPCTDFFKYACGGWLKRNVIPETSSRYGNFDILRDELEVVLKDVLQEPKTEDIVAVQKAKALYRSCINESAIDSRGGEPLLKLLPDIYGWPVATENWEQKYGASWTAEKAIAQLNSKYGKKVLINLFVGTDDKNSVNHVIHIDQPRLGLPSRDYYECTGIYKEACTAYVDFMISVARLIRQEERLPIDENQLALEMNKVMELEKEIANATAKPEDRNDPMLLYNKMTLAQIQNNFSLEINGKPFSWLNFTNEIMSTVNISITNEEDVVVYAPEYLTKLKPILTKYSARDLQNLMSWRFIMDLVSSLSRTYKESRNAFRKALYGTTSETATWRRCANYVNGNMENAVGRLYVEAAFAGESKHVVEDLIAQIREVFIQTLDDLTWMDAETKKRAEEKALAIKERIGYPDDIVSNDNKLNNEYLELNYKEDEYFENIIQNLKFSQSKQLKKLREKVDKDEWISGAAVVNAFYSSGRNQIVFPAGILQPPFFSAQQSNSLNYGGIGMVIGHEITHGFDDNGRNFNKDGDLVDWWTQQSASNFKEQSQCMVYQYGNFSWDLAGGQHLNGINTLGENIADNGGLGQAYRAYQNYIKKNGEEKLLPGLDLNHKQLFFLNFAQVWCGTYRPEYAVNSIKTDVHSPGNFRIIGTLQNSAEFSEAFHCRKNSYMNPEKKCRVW

Consider “Reversible Lys26 CNP-38 PEG4×10 kDa Conjugate (LQEHPNARKYKGANKKGLSKGCFGLK([reversible linker-PEG 4×10 kDa])LDRIGSMSGLGC; ends and bridges not checked; also: reversible linker structure not given here; UniProt P23582 89-126, looked up, fragment) [Compound 11i]”, for which, in series [1], the “HR (heart rate)” value is listed as “not impacted”, the “MAP 5 min post dose (mean ± SD)” value is recorded as 122.8 ± 5.9 mmHg, the “MAP 15 min post dose (mean ± SD)” value is given as 121.5 ± 7.5 mmHg and the “MAP 30 min post dose (mean ± SD)” value is given as 111.5 ± 13.7 mmHg. In addition, in series [1], the “blood pressure (conclusion)” value was “did not decrease blood pressure”; the “change in MAP at the 5, 15, and 30 min post dose sampling time points (in words)” value was “same physiological increase in MAP”. In addition, the tolerability result in [2] was “well tolerated”. Moreover, in series [3], the dose site reactions result is “No dose site reactions were observed” and the terminal half life was in the range of 72 to 96 h. Moreover, the “tolerability of dose administrations” value in series [4] is listed as “well tolerated”.
Consider “Permanent Lys26 CNP-38 PEG 5 kDa Conjugate (LQEHPNARKYKGANKKGLSKGCFGLK(PEG 5 kDa)LDRIGSMSGLGC; cysteine pairing not given here; UniProt P23582 89-126, looked up, fragment) [Compound 19e]”, for which the half life norm. in [5] is 62.76 h.
As for “Permanent Lys22 CNP-34 PEG 5 kDa Conjugate [Compound 18e]”, the half life norm. in series [5] amounted to 38.87 h.
In the case of `CC[C@H](C)[C@@H]1NC(=O)[C@H](CCCNC(=N)N)NC(=O)[C@H](CC(=O)O)NC(=O)[C@H](CC(C)C)NC(=O)[C@H](CCCCN)NC(=O)[C@H](CC(C)C)NC(=O)CNC(=O)[C@H](Cc2ccccc2)NC(=O)[C@@H](NC(=O)CNC(=O)[C@H](CCCCN)NC(=O)[C@H](CO)NC(=O)[C@H](CC(C)C)NC(=O)CNC(=O)[C@H](CCCCN)NC(=O)[C@H](CCCCN)NC(=O)[C@H](CC(N)=O)NC(=O)[C@H](C)NC(=O)CNC(=O)[C@H](CCCCN)NC(=O)[C@H](Cc2ccc(O)cc2)NC(=O)[C@H](CCCCN)NC(=O)[C@H](CCCNC(=N)N)NC(=O)[C@H](C)NC(=O)[C@H](CC(N)=O)NC(=O)[C@@H]2CCCN2C(=O)[C@H](Cc2c[nH]cn2)NC(=O)[C@H](CCC(=O)O)NC(=O)[C@H](CCC(N)=O)NC(=O)[C@@H](N)CC(C)C)CSSC[C@@H](C(=O)O)NC(=O)CNC(=O)[C@H](CC(C)C)NC(=O)CNC(=O)[C@H](CO)NC(=O)[C@H](CCSC)NC(=O)[C@H](CO)NC(=O)CNC1=O` [CNP-38, reference compound], in [1], the “HR (heart rate)” value is “not impacted”, the “MAP 5 min post dose (mean ± SD)” value is on record as 102.0 ± 7.5 mmHg, the “MAP 15 min post dose (mean ± SD)” value is listed as 89.5 ± 29.4 mmHg and the “MAP 30 min post dose (mean ± SD)” value was determined as 99.5 ± 25.2 mmHg. In [1], the “change in MAP at the 5, 15, and 30 min post dose sampling time points (in words)” value is on record as “significant decrease in MAP”. Besides, the “MAP predose (mean ± SD)” value in series [1] (predose) is recorded as 106.8 ± 13.4 mmHg. For the same molecule, the tolerability entry in series [6] is “well tolerated”.
Consider “Permanent Lys26 CNP-38 PEG4×10 kDa Conjugate [Compound 12g]”, for which, in [7] (cynomolgus monkey, in vivo), the bioavailability result is on record as “ca. 50%” and the dose site reactions result is reported as “No dose site reactions were observed”. Further, the “half life time of CNP-38 content” value in series [7] (cynomolgus monkey, in vivo, iv) was “approx. 24 h”. Moreover, the “tolerability of dose administrations” value in series [7] (single intravenous or subcutaneous, 0.146 mg CNP-38 eq/kg) is “well tolerated”. The half life norm. entry in [5] is reported as “Almost no proteolysis”.
Regarding “Permanent Lys16 CNP-34 PEG 5 kDa Conjugate (PNARKYKGANKKGLSK(PEG 5 kDa)GCFGLKLDRIGSMSGLGC; cysteine pairing not given here; UniProt P23582 93-126, looked up, fragment) [Compound 17e]”, the half life norm. in series [5] was 54.23 h.
Regarding “CNP: C-type natriuretic peptide as named in the background section”, the half-life (as a rule, the time in which the quantity being followed falls by half) in series [8] was 2 min. In addition, in series [9], the “effect on blood pressure and heart rate” value is “transient but significant decrease in both systolic and diastolic blood pressure with a significant increase in heart rate”.
For the molecule “Permanent N-Terminal CNP-38 PEG 5 kDa Conjugate ({PEG 5 kDa}-LQEHPNARKYKGANKKGLSKGCFGLKLDRIGSMSGLGC; disulfide 22-38; also: permanent PEG attachment; UniProt P23582 89-126, looked up, fragment) [Compound 15e]”, the half life norm. result in series [5] is recorded as “Almost no proteolysis”.
With “Reversible Lys26 CNP-38 PEG2×20 kDa Conjugate (LQEHPNARKYKGANKKGLSKGCFGLKLDRIGSMSGLGC; not fully specified (residue 26); ends and bridges not checked; also: reversible linker structure not given here; UniProt P23582 89-126, looked up, fragment) [Compound 10f]”, in series [3], the dose site reactions result is reported as “No dose site reactions were observed”. The “tolerability of dose administrations” value in series [4] was “well tolerated”.
In the case of “BMN-111: a CNP variant with increased NEP resistance in development for the treatment of achondroplasia (PGQEHPNARKYKGANKKGLSKGCFGLKLDRIGSMSGLGC; disulfide 23-39; chains of the INN, looked up)”, the haemodynamic effect entry in [10] is recorded as “mild hypotension”.
